These are literature values, as cited in paper PMC9221429.

The target of data set [1] is B-Raf V600E (Homo sapiens) (UniProt P15056).
The target of a further data set is B-Raf (Homo sapiens) (UniProt P15056).
Sequence of B-Raf (Homo sapiens) (P15056 2-766): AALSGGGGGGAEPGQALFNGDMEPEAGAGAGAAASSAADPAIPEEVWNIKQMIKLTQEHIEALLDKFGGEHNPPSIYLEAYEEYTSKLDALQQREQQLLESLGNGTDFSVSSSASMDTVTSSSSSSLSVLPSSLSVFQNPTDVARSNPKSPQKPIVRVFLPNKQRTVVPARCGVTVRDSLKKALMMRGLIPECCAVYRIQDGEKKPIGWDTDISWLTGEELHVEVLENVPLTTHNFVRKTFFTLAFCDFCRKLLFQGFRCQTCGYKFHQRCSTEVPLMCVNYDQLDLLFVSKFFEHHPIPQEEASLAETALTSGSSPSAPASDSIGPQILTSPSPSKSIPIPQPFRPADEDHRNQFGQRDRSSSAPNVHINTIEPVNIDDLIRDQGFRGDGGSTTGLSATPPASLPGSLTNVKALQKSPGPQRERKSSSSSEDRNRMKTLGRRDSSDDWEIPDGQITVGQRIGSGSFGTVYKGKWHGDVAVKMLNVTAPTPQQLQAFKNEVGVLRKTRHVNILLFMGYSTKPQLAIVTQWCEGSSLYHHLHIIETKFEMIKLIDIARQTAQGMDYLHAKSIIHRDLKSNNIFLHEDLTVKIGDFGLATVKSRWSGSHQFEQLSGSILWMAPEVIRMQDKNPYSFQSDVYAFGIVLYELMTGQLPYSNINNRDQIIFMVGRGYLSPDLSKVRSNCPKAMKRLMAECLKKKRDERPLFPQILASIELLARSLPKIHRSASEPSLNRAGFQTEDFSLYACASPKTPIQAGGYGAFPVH

Sequence of Cdc37 (Q16543 2-378): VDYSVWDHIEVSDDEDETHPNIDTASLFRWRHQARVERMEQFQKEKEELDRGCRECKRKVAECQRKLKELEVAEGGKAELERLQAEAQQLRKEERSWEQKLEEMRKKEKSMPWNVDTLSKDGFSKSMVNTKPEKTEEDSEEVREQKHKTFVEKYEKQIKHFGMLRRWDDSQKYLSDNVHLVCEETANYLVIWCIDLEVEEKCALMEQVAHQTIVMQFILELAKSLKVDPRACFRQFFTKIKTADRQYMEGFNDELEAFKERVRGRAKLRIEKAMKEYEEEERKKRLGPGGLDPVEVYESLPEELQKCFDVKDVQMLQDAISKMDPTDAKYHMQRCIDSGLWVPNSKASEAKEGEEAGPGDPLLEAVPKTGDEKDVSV
Sequence of B-Raf V600E (Homo sapiens) (P15056 2-766 V600E): as the sequence (P15056 2-766) above, with V599E counted along it

Take Cdc37 (from UniProt Q16543): the dissociation constant (Kd) was 400 nM in data set [1] and 1000 nM with B-Raf (Homo sapiens).

Broadly, the Kd is the equilibrium constant for the complex coming apart.
